± gives the standard deviation of the averaged measurements.
Assay: total protein half-life in vivo (active degradation + dilution); higher = more stable protein
[1] = wild type E. coli NCM3722, growth: C-lim chemostat, doubling time 3 h
[2] = wild type E. coli NCM3722, growth: C-lim chemostat, doubling time 6 h
[3] = E. coli NCM3722 delta-clpP, growth: N-lim chemostat, doubling time 6 h
[4] = E. coli NCM3722 delta-hslV, growth: N-lim chemostat, doubling time 6 h
[5] = E. coli NCM3722 delta-lon, growth: N-lim chemostat, doubling time 6 h
[6] = E. coli NCM3722 delta-smpB, growth: N-lim chemostat, doubling time 6 h
[7] = wild type E. coli NCM3722, growth: C-lim chemostat, doubling time 12 h
[8] = wild type E. coli NCM3722, growth: N-lim chemostat, doubling time 6 h
[9] = wild type E. coli NCM3722, growth: N-lim chemostat, doubling time 12 h
[10] = wild type E. coli NCM3722, growth: P-lim chemostat, doubling time 6 h
[11] = E. coli NCM3722 delta-clpP delta-lon delta-hslV, growth: N-lim chemostat, doubling time 6 h
[12] = wild type E. coli NCM3722, growth: P-lim chemostat, doubling time 12 h

| Sequence | total protein half-life in vivo [1] [h] | total protein half-life in vivo [2] [h] | total protein half-life in vivo [3] [h] | total protein half-life in vivo [4] [h] | total protein half-life in vivo [5] [h] | total protein half-life in vivo [6] [h] | total protein half-life in vivo [7] [h] | total protein half-life in vivo [8] [h] | total protein half-life in vivo [9] [h] | total protein half-life in vivo [10] [h] | total protein half-life in vivo [11] [h] | total protein half-life in vivo [12] [h] |
| --- | --- | --- | --- | --- | --- | --- | --- | --- | --- | --- | --- | --- |
| MNNDNTDYVSNESGTLSRLFKLPQHGTTVRTELIAGMTTFLTMVYIVFVNPQILGAAQMDPKVVFVTTCLIAGIGSIAMGIFANLPVALAPAMGLNAFFAFVVVGAMGISWQTGMGAIFWGAVGLFLLTLFRIRYWMISNIPLSLRIGITSGIGLFIALMGLKNTGVIVANKDTLVMIGDLSSHGVLLGILGFFIITVLSSRHFHAAVLVSIVVTSCCGLFFGDVHFSGVYSIPPDISGVIGEVDLSGALTLELAGIIFSFMLINLFDSSGTLIGVTDKAGLIDGNGKFPNMNKALYVDSVSSVAGAFIGTSSVTAYIESTSGVAVGGRTGLTAVVVGVMFLLVMFFSPLVAIVPPYATAGALIFVGVLMTSSLARVNWDDFTESVPAFITTVMMPFTFSITEGIALGFMSYCIMKVCTGRWRDLNLCVVVVAALFALKIILVD | 3.27 | 5.84 | – | – | – | – | – | – | – | – | – | – |
| MFHRLWTLIRKELQSLLREPQTRAILILPVLIQVILFPFAATLEVTNATIAIYDEDNGEHSVELTQRFARASAFTHVLLLKSPQEIRPTIDTQKALLLVRFPADFSRKLDTFQTAPLQLILDGRNSNSAQIAANYLQQIVKNYQQELLEGKPKPNNSELVVRNWYNPNLDYKWFVVPSLIAMITTIGVMIVTSLSVAREREQGTLDQLLVSPLTTWQIFIGKAVPALIVATFQATIVLAIGIWAYQIPFAGSLALFYFTMVIYGLSLVGFGLLISSLCSTQQQAFIGVFVFMMPAILLSGYVSPVENMPVWLQNLTWINPIRHFTDITKQIYLKDASLDIVWNSLWPLLVITATTGSAAYAMFRRKVM [P0AFP9] | 3.51 | 6.05 ± 0.27 | 6.75 ± 1.4 | > 8 | 7.11 | 5.25 ± 0.36 | 12.97 ± 0.071 | 6.33 ± 0.16 | 12.1 ± 1.1 | 6.38 | – | – |
| MNDAVITLNGLEKRFPGMDKPAVAPLDCTIHAGYVTGLVGPDGAGKTTLMRMLAGLLKPDSGSATVIGFDPIKNDGALHAVLGYMPQKFGLYEDLTVMENLNLYADLRSVTGEARKQTFARLLEFTSLGPFTGRLAGKLSGGMKQKLGLACTLVGEPKVLLLDEPGVGVDPISRRELWQMVHELAGEGMLILWSTSYLDEAEQCRDVLLMNEGELLYQGEPKALTQTMAGRSFLMTSPHEGNRKLLQRALKLPQVSDGMIQGKSVRLILKKEATPDDIRHADGMPEININETTPRFEDAFIDLLGGAGTSESPLGAILHTVEGTPGETVIEAKELTKKFGDFAATDHVNFAVKRGEIFGLLGPNGAGKSTTFKMMCGLLVPTSGQALVLGMDLKESSGKARQHLGYMAQKFSLYGNLTVEQNLRFFSGVYGLRGRAQNEKISRMSEAFGLKSIASHATDELPLGFKQRLALACSLMHEPDILFLDEPTSGVDPLTRREFWLHINSMVEKGVTVMVTTHFMDEAEYCDRIGLVYRGKLIASGTPDDLKAQSANDEQPDPTMEQAFIQLIHDWDKEHSNE [P0A9U1] | 3.32 ± 0.15 | – | 6.03 ± 0.77 | 6.28 ± 0.41 | 6.03 ± 0.23 | 5.83 ± 0.5 | 11.8 ± 2.2 | 6.05 ± 0.092 | 12.6 ± 1.7 | 6.15 ± 0.14 | 5.78 ± 0.23 | 12.3 ± 0.47 |
| MRFIIRTVMLIALVWIGLLLSGYGVLIGSKENAAGLGLQCTYLTARGTSTVQYLHTKSGFLGITDCPLLRKSNIVVDNG [Q2MB16] | – | – | 6.25 | – | – | 6.03 ± 1.1 | 14 ± 1.4 | 5.45 | – | – | 7.32 ± 0.77 | 14 ± 2.2 |
| MTQFASPVLHSLLDTDAYKLHMQQAVFHHYYDVHVAAEFRCRGDDLLGIYADAIREQVQAMQHLRLQDDEYQWLSALPFFKADYLNWLREFRFNPEQVTVSNDNGKLDIRLSGPWREVILWEVPLLAVISEMVHRYRSPQADVAQALDTLESKLVDFSALTAGLDMSRFHLMDFGTRRRFSREVQETIVKRLQQESWFVGTSNYDLARRLSLTPMGTQAHEWFQAHQQISPDLANSQRAALAAWLEEYPDQLGIALTDCITMDAFLRDFGVEFASRYQGLRHDSGDPVEWGEKAIAHYEKLGIDPQSKTLVFSDNLDLRKAVELYRHFSSRVQLSFGIGTRLTCDIPQVKPLNIVIKLVECNGKPVAKLSDSPGKTICHDKAFVRALRKAFDLPHIKKAS | 2.28 ± 0.31 | 4.04 ± 0.27 | 3.07 ± 0.44 | 2.98 ± 0.068 | 4.11 ± 0.88 | 2.95 ± 0.13 | 5.56 ± 0.35 | 2.92 ± 0.065 | 4.49 ± 0.41 | 3.57 ± 0.071 | 4.31 ± 1.6 | 5.37 ± 1 |
| MSQDNNFSQGPVPQSARKGVLALTFVMLGLTFFSASMWTGGTLGTGLSYHDFFLAVLIGNLLLGIYTSFLGYIGAKTGLTTHLLARFSFGVKGSWLPSLLLGGTQVGWFGVGVAMFAIPVGKATGLDINLLIAVSGLLMTVTVFFGISALTVLSVIAVPAIACLGGYSVWLAVNGMGGLDALKAVVPAQPLDFNVALALVVGSFISAGTLTADFVRFGRNAKLAVLVAMVAFFLGNSLMFIFGAAGAAALGMADISDVMIAQGLLLPAIVVLGLNIWTTNDNALYASGLGFANITGMSSKTLSVINGIIGTVCALWLYNNFVGWLTFLSAAIPPVGGVIIADYLMNRRRYEHFATTRMMSVNWVAILAVALGIAAGHWLPGIVPVNAVLGGALSYLILNPILNRKTTAAMTHVEANSVE [P0AA82] | 2.01 | – | 0.878 ± 0.056 | – | – | – | – | – | – | – | – | – |
| MSNAQEAVKTRHKETSLIFPVLALVVLFLWGSSQTLPVVIAINLLALIGILSSAFSVVRHADVLAHRLGEPYGSLILSLSVVILEVSLISALMATGDAAPTLMRDTLYSIIMIVTGGLVGFSLLLGGRKFATQYMNLFGIKQYLIALFPLAIIVLVFPMALPAANFSTGQALLVALISAAMYGVFLLIQTKTHQSLFVYEHEDDSDDDDPHHGKPSAHSSLWHAIWLIIHLIAVIAVTKMNASSLETLLDSMNAPVAFTGFLVALLILSPEGLGALKAVLNNQVQRAMNLFFGSVLATISLTVPVVTLIAFMTGNELQFALGAPEMVVMVASLVLCHISFSTGRTNVLNGAAHLALFAAYLMTIFA | – | – | > 8 | – | – | 6.69 | > 16 | – | – | 6.87 | – | – |
| MSQLVYFSSSSENTQRFIERLGLPAVRIPLNERERIQVDEPYILIVPSYGGGGTAGAVPRQVIRFLNDEHNRALLRGVIASGNRNFGEAYGRAGDVIARKCGVPWLYRFELMGTQSDIENVRKGVTEFWQRQPQNA [P0A772] | – | – | – | – | – | – | – | – | – | – | 4.46 ± 0.33 | – |
| MFNSDNLRLDGKCAIITGAGAGIGKEIAITFATAGASVVVSDINADAANHVVDEIQQLGGQAFACRCDITSEQELSALADFAISKLGKVDILVNNAGGGGPKPFDMPMADFRRAYELNVFSFFHLSQLVAPEMEKNGGGVILTITSMAAENKNINMTSYASSKAAASHLVRNMAFDLGEKNIRVNGIAPGAILTDALKSVITPEIEQKMLQHTPIRRLGQPQDIANAALFLCSPAASWVSGQILTVSGGGVQELN [P0AET8] | 3.53 ± 0.6 | 5.51 ± 1.1 | 4.39 ± 0.73 | 4.72 ± 0.18 | 5.48 ± 0.66 | 4.27 ± 0.21 | 10.2 ± 1.2 | 4.57 ± 0.14 | 7.309 ± 0.022 | 5.64 ± 0.42 | 4.91 ± 0.11 | 11.8 ± 0.3 |
| MNYSHDNWSAILAHIGKPEELDTSARNAGALTRRREIRDAATLLRLGLAYGPGGMSLREVTAWAQLHDVATLSDVALLKRLRNAADWFGILAAQTLAVRAAVTGCTSGKRLRLVDGTAISAPGGGSAEWRLHMGYDPHTCQFTDFELTDSRDAERLDRFAQTADEIRIADRGFGSRPECIRSLAFGEADYIVRVHWRGLRWLTAEGMRFDMMGFLRGLDCGKNGETTVMIGNSGNKKAGAPFPARLIAVSLPPEKALISKTRLLSENRRKGRVVQAETLEAAGHVLLLTSLPEDEYSAEQVADCYRLRWQIELAFKRLKSLLHLDALRAKEPELAKAWIFANLLAAFLIDDIIQPSLDFPPRSAGSEKKN [P0CF93] | 0.861 ± 0.23 | 1.69 ± 0.64 | 0.94 | 1.34 ± 0.12 | 1.85 ± 0.024 | 0.81 | 2.64 ± 0.44 | 1.62 ± 0.41 | 2.3 ± 0.26 | 0.485 | 5.49 ± 0.06 | 11.9 |
| MSFDSLGLSPDILRAVAEQGYREPTPIQQQAIPAVLEGRDLMASAQTGTGKTAGFTLPLLQHLITRQPHAKGRRPVRALILTPTRELAAQIGENVRDYSKYLNIRSLVVFGGVSINPQMMKLRGGVDVLVATPGRLLDLEHQNAVKLDQVEILVLDEADRMLDMGFIHDIRRVLTKLPAKRQNLLFSATFSDDIKALAEKLLHNPLEIEVARRNTASDQVTQHVHFVDKKRKRELLSHMIGKGNWQQVLVFTRTKHGANHLAEQLNKDGIRSAAIHGNKSQGARTRALADFKSGDIRVLVATDIAARGLDIEELPHVVNYELPNVPEDYVHRIGRTGRAAATGEALSLVCVDEHKLLRDIEKLLKKEIPRIAIPGYEPDPSIKAEPIQNGRQQRGGGGRGQGGGRGQQQPRRGEGGAKSASAKPAEKPSRRLGDAKPAGEQQRRRRPRKPAAAQ | 3.12 | 7.2 | 5.49 ± 0.3 | 5.007 ± 0.03 | 5.23 ± 1.5 | 4.98 ± 0.23 | 14.7 ± 0.98 | 5.3 ± 0.071 | 8.71 ± 0.062 | 4.83 ± 0.43 | 4.67 ± 1.2 | 9.31 ± 0.65 |
| MAMETQDIIKRSATNSITPPSQVRDYKAEVAKLIDVSTCIGCKACQVACSEWNDIRDEVGHCVGVYDNPADLSAKSWTVMRFSETEQNGKLEWLIRKDGCMHCEDPGCLKACPSAGAIIQYANGIVDFQSENCIGCGYCIAGCPFNIPRLNKEDNRVYKCTLCVDRVSVGQEPACVKTCPTGAIHFGTKKEMLELAEQRVAKLKARGYEHAGVYNPEGVGGTHVMYVLHHADQPELYHGLPKDPKIDTSVSLWKGALKPLAAAGFIATFAGLIFHYIGIGPNKEVDDDEEDHHE [P0AAJ3] | – | – | 4.35 | > 8 | – | – | – | 3.95 | – | 6.22 | – | – |
| MHNDKDLSTWQTFRRLWPTIAPFKAGLIVAGVALILNAASDTFMLSLLKPLLDDGFGKTDRSVLVWMPLVVIGLMILRGITSYVSSYCISWVSGKVVMTMRRRLFGHMMGMPVSFFDKQSTGTLLSRITYDSEQVASSSSGALITVVREGASIIGLFIMMFYYSWQLSIILIVLAPIVSIAIRVVSKRFRNISKNMQNTMGQVTTSAEQMLKGHKEVLIFGGQEVETKRFDKVSNRMRLQGMKMVSASSISDPIIQLIASLALAFVLYAASFPSVMDSLTAGTITVVFSSMIALMRPLKSLTNVNAQFQRGMAACQTLFTILDSEQEKDEGKRVIERATGDVEFRNVTFTYPGRDVPALRNINLKIPAGKTVALVGRSGSGKSTIASLITRFYDIDEGEILMDGHDLREYTLASLRNQVALVSQNVHLFNDTVANNIAYARTEQYSREQIEEAARMAYAMDFINKMDNGLDTVIGENGVLLSGGQRQRIAIARALLRDSPILILDEATSALDTESERAIQAALDELQKNRTSLVIAHRLSTIEKADEIVVVEDGVIVERGTHNDLLEHRGVYAQLHKMQFGQ | 3.38 ± 0.053 | 5.63 ± 0.13 | 5.99 ± 0.27 | 6.35 ± 0.47 | 6.51 ± 0.63 | 6.04 ± 0.25 | 11.4 ± 3 | 6.15 ± 0.19 | – | 5.9 ± 0.39 | 5.89 ± 0.51 | 11.3 ± 0.23 |

— the supplement of paper PMC11246515
